Experimental data reported in patent US10087225B2, “Formulation of MK2 inhibitor peptides” (MOERAE MATRIX, INC., priority 2015, dated 2018).

What was measured:
[1] = molecular target: T1, JAK3(h) (Homo sapiens, UniProt P52333); test: Kinase Profiling Assay; format: biochemical
T1 sequence (P52333 1-1124): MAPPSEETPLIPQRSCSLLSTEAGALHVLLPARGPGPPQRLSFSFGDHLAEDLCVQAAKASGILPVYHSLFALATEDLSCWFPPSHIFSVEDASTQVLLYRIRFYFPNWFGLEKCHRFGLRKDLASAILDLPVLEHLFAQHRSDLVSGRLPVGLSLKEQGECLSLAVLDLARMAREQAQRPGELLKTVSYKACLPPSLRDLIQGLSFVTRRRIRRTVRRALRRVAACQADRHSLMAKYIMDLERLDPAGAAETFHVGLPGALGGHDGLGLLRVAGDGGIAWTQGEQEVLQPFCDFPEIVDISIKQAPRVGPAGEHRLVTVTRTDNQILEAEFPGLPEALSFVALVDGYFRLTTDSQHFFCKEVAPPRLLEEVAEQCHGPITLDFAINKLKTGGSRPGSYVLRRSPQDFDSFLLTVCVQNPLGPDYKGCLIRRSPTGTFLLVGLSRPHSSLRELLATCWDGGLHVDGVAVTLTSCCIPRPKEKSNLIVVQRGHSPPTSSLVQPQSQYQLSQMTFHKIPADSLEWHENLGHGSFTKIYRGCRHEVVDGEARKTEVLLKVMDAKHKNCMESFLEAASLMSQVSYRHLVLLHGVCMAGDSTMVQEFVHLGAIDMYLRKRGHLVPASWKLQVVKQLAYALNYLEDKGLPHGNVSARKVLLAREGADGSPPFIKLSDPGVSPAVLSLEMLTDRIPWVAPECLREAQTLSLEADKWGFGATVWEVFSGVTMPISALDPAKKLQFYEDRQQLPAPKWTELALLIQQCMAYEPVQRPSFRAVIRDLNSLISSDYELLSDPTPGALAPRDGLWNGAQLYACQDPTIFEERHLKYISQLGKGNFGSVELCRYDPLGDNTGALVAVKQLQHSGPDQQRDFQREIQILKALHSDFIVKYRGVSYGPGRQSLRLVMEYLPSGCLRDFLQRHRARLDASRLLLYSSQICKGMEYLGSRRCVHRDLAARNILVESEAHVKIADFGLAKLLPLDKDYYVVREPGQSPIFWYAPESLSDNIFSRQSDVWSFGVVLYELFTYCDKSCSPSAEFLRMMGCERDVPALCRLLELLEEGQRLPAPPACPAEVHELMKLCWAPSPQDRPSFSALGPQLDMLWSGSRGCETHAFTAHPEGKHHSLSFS

[2] = system: HCAVSMCs; test: Cytosolic vs. organelle bound peptide by digitonin semi-permeabilization; format: cell-based, human; conditions: Bafilomycin treatment
Procedure: In order to quantify the cytosolic bioavailability of the MK2i and HSP20 peptides a method to separate cytosolic and organelle bound (i.e. endosomal, lysosomal, golgi, etc.) peptide was adapted from the methods developed by Liu et a140. The procedure was optimized for this experiment based upon LDH release from HCAVSMCs treated with varying concentrations of digitonin (Calbiochem) in buffer (150 mM NaCl, 0.2 mM EDTA, 20 mM HEPES-NaOH (pH 7.4), 2 mM DTT and 2 mM MgCL2) on ice for 10 mins on a rotary shaker operating at 100 RPM (supplementary FIG. 3). A concentration of 25 μg/mL was then chosen as the optimal digitonin concentration for selective semi-permeabilization of the HCAVSMC membrane and subsequently used for the analysis of intracellular peptide distribution.
To quantify intracellular distribution of the MK2i and p-HSP20 peptides, HCAVSMCs were seeded into a 96 well plate at a density of 20,000 cells/cm2 and allowed to adhere overnight in complete growth medium. A portion of the cells were pretreated with 500 nM Bafilomycin A1 (Sigma) for 30 minutes, and the Bafilomycin was included in subsequent peptide/NP treatment and in the post-treatment incubation phase to inhibit endosomal acidification. […] Treatments were removed and cells were incubated in fresh medium with or without 500 nM Bafilomycin A1 for 6 hours. […]

[3] = Heat-accelerated stability of MMI-0100 in buffers pH 4-8 (pH, appearance, HPLC assay, impurities); conditions: in citrate
Excerpt: Testing of stability samples included pH (initial only), appearance, HPLC assay and impurities. CC=clear and colorless.

[4] = molecular target: T2, CHK1(h) (Homo sapiens, UniProt O14757); test: Kinase Profiling Assay; format: biochemical; conditions: 100 μM
T2 sequence (O14757 1-476): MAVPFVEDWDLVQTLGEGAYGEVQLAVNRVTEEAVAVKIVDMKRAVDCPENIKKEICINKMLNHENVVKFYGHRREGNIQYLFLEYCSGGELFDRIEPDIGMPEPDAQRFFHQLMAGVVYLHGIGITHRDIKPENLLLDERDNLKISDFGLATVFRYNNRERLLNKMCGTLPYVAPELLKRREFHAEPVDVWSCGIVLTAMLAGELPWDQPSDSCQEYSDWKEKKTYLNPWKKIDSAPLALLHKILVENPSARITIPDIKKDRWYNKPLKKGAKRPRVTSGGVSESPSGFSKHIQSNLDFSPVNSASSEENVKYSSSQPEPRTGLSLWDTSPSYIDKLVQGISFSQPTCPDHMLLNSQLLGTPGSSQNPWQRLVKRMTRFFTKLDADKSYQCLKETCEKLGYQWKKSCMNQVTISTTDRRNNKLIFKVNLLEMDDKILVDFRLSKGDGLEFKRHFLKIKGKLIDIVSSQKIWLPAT

[5] = molecular target: DAPK2(h) (Homo sapiens, UniProt Q9UIK4); test: Kinase Profiling Assay; format: biochemical; conditions: 100 μM
[6] = molecular target: GSK3α(h) (Homo sapiens, UniProt P49840); test: Kinase Profiling Assay; format: biochemical; conditions: 100 μM
[7] = molecular target: MEK1(h) (Homo sapiens, UniProt Q02750); test: Kinase Profiling Assay; format: biochemical; conditions: 100 μM
[8] = molecular target: Rsk3(h) (Homo sapiens, UniProt Q15349); test: Kinase Profiling Assay; format: biochemical; conditions: 100 μM
[9] = molecular target: CK1γ3(h) (Homo sapiens, UniProt Q9Y6M4); test: Kinase Profiling Assay; format: biochemical; conditions: 100 μM
[10] = molecular target: CLK2(h) (Homo sapiens, UniProt P49760); test: Kinase Profiling Assay; format: biochemical; conditions: 100 μM
[11] = molecular target: GRK5(h) (Homo sapiens, UniProt P34947); test: Kinase Profiling Assay; format: biochemical; conditions: 100 μM
[12] = molecular target: PAK3(h) (Homo sapiens, UniProt O75914); test: Kinase Profiling Assay; format: biochemical; conditions: 100 μM
PAK3(h), sequence (O75914 whole entry): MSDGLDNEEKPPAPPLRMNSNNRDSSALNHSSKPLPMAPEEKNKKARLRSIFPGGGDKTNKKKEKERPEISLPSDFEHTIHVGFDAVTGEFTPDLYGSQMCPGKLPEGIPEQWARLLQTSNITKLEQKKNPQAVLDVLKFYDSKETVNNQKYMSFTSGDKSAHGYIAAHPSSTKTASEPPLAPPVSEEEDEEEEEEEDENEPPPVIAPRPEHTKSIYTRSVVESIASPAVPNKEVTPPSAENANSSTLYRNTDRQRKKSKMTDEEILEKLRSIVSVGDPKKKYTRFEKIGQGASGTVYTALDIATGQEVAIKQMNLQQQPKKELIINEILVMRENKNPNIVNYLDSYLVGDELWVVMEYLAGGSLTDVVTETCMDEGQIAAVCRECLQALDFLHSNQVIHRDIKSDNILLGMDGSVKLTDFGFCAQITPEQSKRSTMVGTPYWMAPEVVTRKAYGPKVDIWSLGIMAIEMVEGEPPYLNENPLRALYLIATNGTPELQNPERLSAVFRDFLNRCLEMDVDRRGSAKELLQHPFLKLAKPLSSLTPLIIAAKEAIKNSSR

DAPK2(h), sequence (Q9UIK4 whole entry): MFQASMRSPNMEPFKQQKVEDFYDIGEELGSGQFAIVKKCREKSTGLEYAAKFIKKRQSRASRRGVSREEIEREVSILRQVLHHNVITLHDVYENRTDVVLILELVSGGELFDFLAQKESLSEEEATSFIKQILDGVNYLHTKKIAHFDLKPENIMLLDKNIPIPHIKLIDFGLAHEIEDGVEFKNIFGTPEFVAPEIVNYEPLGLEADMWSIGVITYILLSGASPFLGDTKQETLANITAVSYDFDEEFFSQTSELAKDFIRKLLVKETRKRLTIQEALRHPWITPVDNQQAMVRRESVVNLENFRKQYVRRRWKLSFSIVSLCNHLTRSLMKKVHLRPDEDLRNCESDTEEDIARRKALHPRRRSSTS
CK1γ3(h), sequence (Q9Y6M4 whole entry): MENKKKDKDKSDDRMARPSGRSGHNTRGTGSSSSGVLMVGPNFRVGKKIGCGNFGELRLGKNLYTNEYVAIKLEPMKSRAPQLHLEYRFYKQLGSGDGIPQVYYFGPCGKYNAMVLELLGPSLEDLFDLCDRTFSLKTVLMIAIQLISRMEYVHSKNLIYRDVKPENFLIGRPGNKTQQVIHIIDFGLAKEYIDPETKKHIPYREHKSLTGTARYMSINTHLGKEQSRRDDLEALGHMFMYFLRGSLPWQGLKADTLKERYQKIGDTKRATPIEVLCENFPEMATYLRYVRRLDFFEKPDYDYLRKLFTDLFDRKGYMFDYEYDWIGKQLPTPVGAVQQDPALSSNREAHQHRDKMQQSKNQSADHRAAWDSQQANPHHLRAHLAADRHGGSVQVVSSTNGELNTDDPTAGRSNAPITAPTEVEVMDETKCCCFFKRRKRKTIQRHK
Rsk3(h), sequence (Q15349 whole entry): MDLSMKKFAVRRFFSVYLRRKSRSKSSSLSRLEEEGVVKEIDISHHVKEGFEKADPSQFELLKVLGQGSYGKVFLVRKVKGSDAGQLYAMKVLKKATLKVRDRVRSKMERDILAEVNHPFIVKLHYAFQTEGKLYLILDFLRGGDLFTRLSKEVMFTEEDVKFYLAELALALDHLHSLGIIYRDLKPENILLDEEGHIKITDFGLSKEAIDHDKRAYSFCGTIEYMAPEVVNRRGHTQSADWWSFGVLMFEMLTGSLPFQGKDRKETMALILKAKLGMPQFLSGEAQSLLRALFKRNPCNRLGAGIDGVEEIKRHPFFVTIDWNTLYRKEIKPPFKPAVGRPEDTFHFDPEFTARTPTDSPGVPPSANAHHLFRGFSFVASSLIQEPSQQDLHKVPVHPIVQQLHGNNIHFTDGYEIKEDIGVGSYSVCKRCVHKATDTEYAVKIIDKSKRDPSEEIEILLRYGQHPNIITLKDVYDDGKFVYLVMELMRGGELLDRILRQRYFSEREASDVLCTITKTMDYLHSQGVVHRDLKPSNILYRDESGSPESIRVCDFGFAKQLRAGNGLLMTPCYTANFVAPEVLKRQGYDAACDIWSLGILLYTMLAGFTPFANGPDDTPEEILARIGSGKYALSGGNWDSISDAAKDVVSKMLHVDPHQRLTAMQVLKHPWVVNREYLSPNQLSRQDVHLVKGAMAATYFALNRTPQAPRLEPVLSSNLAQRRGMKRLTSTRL
CLK2(h), sequence (P49760 whole entry): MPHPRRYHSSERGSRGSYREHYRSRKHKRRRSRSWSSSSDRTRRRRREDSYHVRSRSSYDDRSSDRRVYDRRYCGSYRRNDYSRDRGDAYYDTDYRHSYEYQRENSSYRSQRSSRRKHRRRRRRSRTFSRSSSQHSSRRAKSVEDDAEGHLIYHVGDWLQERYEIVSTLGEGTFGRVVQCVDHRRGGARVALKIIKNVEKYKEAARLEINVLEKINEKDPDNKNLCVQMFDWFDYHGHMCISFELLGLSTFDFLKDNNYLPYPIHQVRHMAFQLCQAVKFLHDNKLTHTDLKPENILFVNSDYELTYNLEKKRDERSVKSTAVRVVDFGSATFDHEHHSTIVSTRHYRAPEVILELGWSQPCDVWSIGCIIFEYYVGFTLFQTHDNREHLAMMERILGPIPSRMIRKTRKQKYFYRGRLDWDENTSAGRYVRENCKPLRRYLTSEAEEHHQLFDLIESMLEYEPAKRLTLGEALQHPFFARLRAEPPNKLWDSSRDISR
GSK3α(h), sequence (P49840 whole entry): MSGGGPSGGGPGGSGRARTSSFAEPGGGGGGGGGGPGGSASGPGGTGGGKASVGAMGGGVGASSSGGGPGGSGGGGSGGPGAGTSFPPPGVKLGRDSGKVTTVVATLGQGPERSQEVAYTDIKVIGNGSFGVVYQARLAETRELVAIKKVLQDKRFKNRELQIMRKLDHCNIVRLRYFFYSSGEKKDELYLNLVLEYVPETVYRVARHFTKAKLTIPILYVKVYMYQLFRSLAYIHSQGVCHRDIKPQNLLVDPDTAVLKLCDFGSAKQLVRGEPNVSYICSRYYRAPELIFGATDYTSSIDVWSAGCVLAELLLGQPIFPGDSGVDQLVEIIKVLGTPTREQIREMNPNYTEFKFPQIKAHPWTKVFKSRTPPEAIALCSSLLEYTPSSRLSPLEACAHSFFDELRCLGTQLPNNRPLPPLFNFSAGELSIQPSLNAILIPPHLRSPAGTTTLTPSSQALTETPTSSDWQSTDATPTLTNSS
GRK5(h), sequence (P34947 whole entry): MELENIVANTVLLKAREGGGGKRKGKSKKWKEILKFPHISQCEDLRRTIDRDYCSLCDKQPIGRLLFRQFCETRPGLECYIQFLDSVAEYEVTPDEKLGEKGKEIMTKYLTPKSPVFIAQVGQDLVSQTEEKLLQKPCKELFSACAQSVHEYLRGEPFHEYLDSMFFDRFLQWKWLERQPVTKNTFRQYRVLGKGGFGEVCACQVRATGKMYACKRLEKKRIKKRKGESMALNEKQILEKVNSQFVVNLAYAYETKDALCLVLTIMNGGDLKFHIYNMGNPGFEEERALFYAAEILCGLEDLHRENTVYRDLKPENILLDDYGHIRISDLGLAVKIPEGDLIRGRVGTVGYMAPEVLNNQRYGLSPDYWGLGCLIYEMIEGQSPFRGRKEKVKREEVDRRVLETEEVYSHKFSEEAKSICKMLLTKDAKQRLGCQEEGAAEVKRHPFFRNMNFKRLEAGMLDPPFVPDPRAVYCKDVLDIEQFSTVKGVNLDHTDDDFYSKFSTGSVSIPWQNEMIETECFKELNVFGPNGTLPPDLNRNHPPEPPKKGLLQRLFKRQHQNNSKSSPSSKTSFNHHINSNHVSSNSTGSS

Substance | activity at 100 µM [1] [%] | cytosolic fraction of internalized free peptide [2] | pH of greatest stability [3] | % activity [4] [%] | % activity [5] [%] | % activity [6] [%] | % activity ([1]; 100 μM) [%] | % activity [7] [%] | % activity [8] [%] | % activity [9] [%] | % activity [10] [%] | % activity [11] [%] | % activity [12] [%]
H-YARAAARQARAKALARQLGVAA-OH [MMI-0100] | 150 | 9.64%±8.17% | 6 | – | – | – | – | – | – | – | – | – | –
HRRIKAWLKKIKALARQLGVAA (Mammalian) [MMI-0500] | – | – | – | 65 | 3 | 175 | 95 | 21 | 23 | – | – | – | –
YARAAARQARAKALNRQLGVA (Mammalian) [MMI-0200] | – | – | – | – | 92 | – | – | – | – | 96 | 97 | 135 | 50
